From article PMC5245964 (eLife, 2017)

Molecular target: T1, Mis18α:Mis18β complex (insect-cell-expressed) (human, UniProt Q9NYP9 1-233; O43482 1-229)
T1 construct: Mis18α, human, the CDS of Mis18α; codon-optimized cDNA (GeneArt); Mis18β, human, the CDS of Mis18β; pre-formed complex used as one partner in pull-downs and reconstitution; also called Mis18α:Mis18β hexamer; source: Tnao38 insect cells, baculovirus co-expression, purified (Ni resin, His-TEVp cleavage, SEC); not shown: His6, N-terminal, cleaved; copies: 4 + 2
T1 sequence (Q9NYP9 whole entry, chain 1 of 2): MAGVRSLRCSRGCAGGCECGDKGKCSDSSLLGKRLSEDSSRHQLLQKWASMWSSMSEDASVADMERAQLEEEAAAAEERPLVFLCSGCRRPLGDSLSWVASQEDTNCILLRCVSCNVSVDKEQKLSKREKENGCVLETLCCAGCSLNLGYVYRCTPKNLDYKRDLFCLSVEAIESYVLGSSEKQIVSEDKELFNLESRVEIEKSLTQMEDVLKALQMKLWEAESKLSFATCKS
T1 sequence (O43482 whole entry, chain 2 of 2): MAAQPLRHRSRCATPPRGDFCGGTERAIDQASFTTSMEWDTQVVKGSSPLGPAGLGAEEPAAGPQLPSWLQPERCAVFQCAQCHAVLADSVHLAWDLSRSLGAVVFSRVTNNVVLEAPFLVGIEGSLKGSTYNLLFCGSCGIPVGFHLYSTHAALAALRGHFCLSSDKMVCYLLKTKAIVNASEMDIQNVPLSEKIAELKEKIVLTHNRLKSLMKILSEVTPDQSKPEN
Assay: pull-down; MBP-tagged M18BP1 variant held on amylose resin, Mis18α:Mis18β in solution; proteins 3 μM, buffer HST300 (30 mM HEPES pH 7.5, 300 mM NaCl, 1 mM TCEP), 4°C, 30 min; CBB-stained Tricine–SDS-PAGE
Conditions: both partners purified

B1: MBP-M18BP1^61–140/S110A-8His (domain or fragment, human, UniProt Q6P0N0 61-140, looked up)
chain: NQFLKMTTFNNKNIFQSTMLTEATTSNSSLDISAIKPNKDGLKNKANYEAPGKIFLRMKEKVLRDKQEQPSRNSSLLEPQ
notes: M18BP1 (KNL2), human, residues 61-140; also tested after CDK1:Cyclin B1 treatment; Ser110 is the only major site of 61-140, so no separate molecule was made; source: E. coli BL21-CodonPlus(DE3)-RIL, purified (Ni resin); not shown: MBP, N-terminal, kept; His8, C-terminal, kept
- binding result: binds
